Test results published in patent publication US20240025969A1, “NPC1 MONOBODIES AND MONOBODY CONJUGATES THEREOF” (NEW YORK UNIVERSITY, priority 2020, published 2024).
“Also recorded” adds a separate entry of the source.

T1: NPC1 (Homo sapiens, UniProt O15118)
T1 construct: endogenous in cells; host or cells: DLD-1 (mutant KRas colorectal cancer cells)
T1 sequence (O15118 23-1278): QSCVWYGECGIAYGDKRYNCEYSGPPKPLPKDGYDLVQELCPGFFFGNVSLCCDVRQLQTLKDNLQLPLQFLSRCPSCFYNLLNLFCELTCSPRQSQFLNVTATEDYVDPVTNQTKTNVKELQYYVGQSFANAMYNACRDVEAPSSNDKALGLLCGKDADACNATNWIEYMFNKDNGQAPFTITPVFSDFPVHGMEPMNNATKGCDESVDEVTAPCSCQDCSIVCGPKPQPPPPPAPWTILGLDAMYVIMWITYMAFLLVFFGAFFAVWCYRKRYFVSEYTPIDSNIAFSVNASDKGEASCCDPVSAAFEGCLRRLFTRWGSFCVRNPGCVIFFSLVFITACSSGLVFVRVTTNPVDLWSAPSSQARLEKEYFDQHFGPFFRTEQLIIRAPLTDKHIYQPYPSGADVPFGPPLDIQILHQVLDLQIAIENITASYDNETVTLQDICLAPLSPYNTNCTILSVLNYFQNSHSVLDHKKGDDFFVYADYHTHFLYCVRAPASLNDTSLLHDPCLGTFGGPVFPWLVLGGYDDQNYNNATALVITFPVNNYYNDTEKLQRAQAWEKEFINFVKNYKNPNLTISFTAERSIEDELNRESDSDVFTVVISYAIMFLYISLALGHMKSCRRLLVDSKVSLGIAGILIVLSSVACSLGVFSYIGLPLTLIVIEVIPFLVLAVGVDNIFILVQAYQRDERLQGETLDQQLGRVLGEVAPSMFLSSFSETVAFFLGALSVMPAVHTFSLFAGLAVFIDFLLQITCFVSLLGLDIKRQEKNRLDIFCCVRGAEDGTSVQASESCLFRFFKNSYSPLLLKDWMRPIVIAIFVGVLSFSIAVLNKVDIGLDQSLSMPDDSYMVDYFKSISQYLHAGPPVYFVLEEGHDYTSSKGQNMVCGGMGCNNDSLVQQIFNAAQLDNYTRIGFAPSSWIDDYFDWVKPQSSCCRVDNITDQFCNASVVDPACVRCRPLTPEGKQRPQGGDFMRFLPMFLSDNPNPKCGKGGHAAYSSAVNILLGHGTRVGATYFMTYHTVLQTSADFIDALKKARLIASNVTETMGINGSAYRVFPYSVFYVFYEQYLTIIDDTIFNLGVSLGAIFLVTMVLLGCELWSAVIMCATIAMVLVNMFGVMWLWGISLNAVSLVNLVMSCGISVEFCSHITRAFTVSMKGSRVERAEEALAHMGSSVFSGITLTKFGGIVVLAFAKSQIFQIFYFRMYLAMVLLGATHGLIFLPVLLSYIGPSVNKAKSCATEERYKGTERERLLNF

B1: N34: NPC1-targeting monobody clone N34 (SEQ ID NO: 40) (protein)
chain: VSSVPTKLEVVAATPTSLLISWDAPAVTVSYYVITYGETGGHYWHWQTFKVPGSKSTATISGLKPGVDYTITVYAYYGQMRYYSPISINYRT
B2: N23: NPC1-targeting monobody clone N23 (SEQ ID NO: 36) (protein)
chain: VSSVPTKLEVVAATPTSLLISWDASSSSVSYYRITYGETGGPFWHYQTFTVPGSKSTATISGLKPGVDYTITVYTYSSSMHFSSSPISINYRT

Key:
ERK = ERK hyperactivation in NPC1 knockdown cells, EGFR inhibition; format: cell-based; conditions: short-term EGFR inhibition
[1] = tested on: Mutant Ras PDAC MIA PaCa-2 cells; assay: Split GFP assay for endosomal escape of GFP11; format: cell-based; conditions: MIA PaCa-2 cells expressing GFP1-10; 600 mM GFP11 with 1 mM monobody for 24 hrs
Experimental: Mutant Ras PDAC MIA PaCa-2 cells stably expressing cytoplasmic GFP1-10 were treated with 600 mM GFP11 with or without 1 mM of the N23 or N34 NCP1 monobody for 24 hrs.
A split GFP assay was developed to measure endosomal escape of proteins. Mutant Ras PDAC MIA PaCa-2 cells were stably expressed with GFP1-10, which is missing the 11β domain needed for fluorescence, making endosomal escape of GFP110 necessary for a positive signal. NPC1 targeting and control monobodies were co-delivered with the free GFP110 domain.

PDAC MIA PaCa3 cells = assay: Calcein endosomal release assay, with or without nanoparticle delivery vehicle; format: cell-based; conditions: for endosomal release of calcein: calcein alone (PBS) or packaged in pegylated nanoparticle delivery vehicles (90 nm Nano), both conditions; for calcein fluorescence (endosomal release of calcein): co-delivery with calcein (FIG. 17)
Excerpt: Calcein is a membrane impermeable, fluid phase uptake marker that is semi-quenched when in close proximity with other calcein molecules in vesicular compartments, but with intracellular release and molecule diffusion, dequenching causes an increase in cellular fluorescence.
FIGS. 18A-18B show an NCP1 monobody mediated increase in endosomal calcein release that was further improved in the presence of a nanoparticle delivery vehicle. FIG. 18A is a panel of immunocytochemical images of PDAC MIA PaCa3 cells treated with calcein alone (PBS) or packaged in a pegylated nanoparticle delivery vehicles (90 nm Nano) (images of top row). […] FIG. 18B is a graph quantifying calcein fluorescence in each of the tested conditions.
Endosome escape was again observed in a small molecule assay (FIG. 17). Calcein is a membrane impermeable, fluid phase uptake marker that is semi-quenched when in close proximity with other calcein molecules in vesicular compartments, but with intracellular release and molecule diffusion, dequenching causes an increase in cellular fluorescence. […] The NPC1 targeting monobodies have been established to induce small molecule, biologic, and nanoparticle escape.

HCT-116 [2] = assay: Monobody uptake in mutant KRas CRC cells HCT-116; format: cell-based; conditions: mutant KRas CRC cells HCT-116, macropinocytosis positive
Excerpt: (§1) FIGS. 10A-10B show monobody selectivity in colorectal DLD-1 and HCT-116 cancer cells (CRC).
(§2) Confirmation that uptake is dependent on macropinocytosis was confirmed in CRC cell lines. […] It was also observed that upon NPC1 knockdown in vitro, there is ERK hyperactivation (FIG. 13A). This observation was confirmed using the N34 monobody in vivo (FIG. 13B).

HeLa KRasV12 cells = assay: LC3B accumulation in macropinocytosis-positive mutant KRas HeLa cells; format: cell-based
Experimental: (§3) FIGS. 8A-8B show mutant KRas-dependent effects of NPC1-targeting monobodies. N23 and N34 clones were analyzed for effect on macropinocytosis negative wild-type KRas HeLa cells (FIG. 8A) versus macropinocytosis-positive mutant KRas […] cells (FIG. 8B). FN is a non-targeting monobody control. Arrows indicate LC3B accumulation.

NPC1 = target: T1, NPC1; assay: Screen for NPC1-inhibitory monobodies: intracellular cholesterol trafficking, filipin; format: cell-based; conditions: for inhibition of NPC1 by endosomal accumulation of cholesterol: DLD1 cells (Ras mutation, colon), cholesterol measured by filipin; for cholesterol entrapment / vesicle disruption: DLD1 cells, preliminary data; for cholesterol entrapment: filipin
Excerpt: FIG. 7A is a graph showing the effect of monobody clones on intracellular cholesterol trafficking. FIG. 7B are representative cell images from FIG. 7A. FIG. 7C is a heat map representation of cholesterol localization from FIG. 7B.
A major benefit of monobodies over antibodies is the lower cost in manufacturing. However, if monobodies need to be re-folded or aggregate during production, the cost of manufacturing can exceed that of antibodies. […] Utilizing both the imaging-based and biochemical approaches, it was confirmed that the monobodies described herein inhibit NPC1 in cell culture. […] FIG. 7B DLD1 cells (Ras mutation, colon) were treated with the top monobody hits and cholesterol was measured by filipin.

HCT-116 [3] = assay: LC3B accumulation in HCT-116 cells; format: cell-based
Excerpt: as §1, §2

HCA7 = assay: Monobody uptake in wild-type KRas CRC cells; format: cell-based; conditions: macropinocytosis negative
Excerpt: as §1, §2

HeLa cells = assay: LC3B accumulation in macropinocytosis negative wild-type KRas HeLa cells; format: cell-based
Experimental: as §3

DLD-1 = assay: Monobody uptake in mutant KRas CRC cells DLD-1; format: cell-based; conditions: mutant KRas CRC cells DLD-1, macropinocytosis positive
Excerpt: as §1, §2

HCT-116 cell = HCT-116 cell proliferation, Syto60 assay; format: cell-based; conditions: Syto60 assay after 3 days of treatment, n=3
Experimental: Proliferation was analyzed by Syto60 assay after 3 days of treatment. n=3

xenografts = assay: Intratumor injection of monobody into xenografts; format: in vivo
Experimental: FIG. 11 show the in vivo cholesterol alterations with NPC1-targeting monobody (N34) versus non-targeting control (FN).
Monobody (1 uM; 50ul volume) was intratumorally injected two hours prior to tumor extraction.
Monobody (1 uM; 50ul volume) was intratumorally injected two hours prior to tumor extraction. Images were taken of serial sections from FIG. 13B.
as §2

[4] = N34-positive vs N34-negative areas, 1 uM, 50ul intratumorally, 2 hours post-injection
[5] = N34-positive vs N34-negative tumor, 1 uM, 50ul intratumorally two hours prior to tumor extraction

Molecule | ERK hyper-activation (ERK) | fluorescence (endosomal escape of GFP11) [1] | endosomal release of calcein (PDAC MIA PaCa3 cells) | calcein fluorescence (endosomal release of calcein) (PDAC MIA PaCa3 cells) | uptake of monobody (HCT-116 [2]) | LC3B accumulation (HeLa KRasV12 cells) | inhibition of NPC1 by endosomal accumulation of cholesterol (NPC1) | cholesterol entrapment (NPC1) | vesicle disruption (NPC1) | accumulation of LC3B (HCT-116 [3]) | uptake of monobody (HCA7) | LC3B accumulation (HeLa cells) | uptake of monobody (DLD-1) | CRC cell proliferation (HCT-116 cell) | LC3B accumulation in xenograft (xenografts; [4]) | cholesterol accumulation in xenograft (xenografts; [4]) | EGFR phosphorylation (activation) in tumor (xenografts; [5]) | ERK phosphorylation (hyperactivation) in tumor (xenografts; [5]) | cholesterol accumulation in tumor cells (xenografts; N34 positive tumor cells compared to non-targeting control monobody (FN)) | uptake in CK8-positive tumor cells (xenografts; intratumor injection into xenografts)
COc1cc2ncnc(Nc3ccc(F)c(Cl)c3)c2cc1NC(=O)/C=C/CN1CCCCC1 [dacomitinib] | blocked ERK hyper-activation | – | – | – | – | – | – | – | – | – | – | – | – | – | – | – | – | – | – | –
B1 | – | observed | enhanced endosomal release of calcein | increasing calcein fluorescence | efficiently internalize | did show an effect | greatest inhibition of NPC1 | improved cholesterol entrapment | induce vesicle disruption | dose-dependent accumulation of LC3B | fail to uptake | did not induce LC3B accumulation | efficiently internalize | growth inhibitory effect | robust cholesterol and LC3B accumulation; also recorded: induces cholesterol and LC3B accumulation | robust cholesterol and LC3B accumulation; also recorded: induces cholesterol and LC3B accumulation | EGFR activation was seen; also recorded: induces EGFR phosphorylation | confirmed; also recorded: induces ERK phosphorylation | displayed cholesterol accumulation | showed uptake
B2 | – | observed | enhanced endosomal release of calcein | increasing calcein fluorescence | – | did show an effect | greatest inhibition of NPC1 | improved cholesterol entrapment | induce vesicle disruption | – | – | did not induce LC3B accumulation | – | no significant inhibition | – | – | – | – | – | –
